These results are taken from patent publication US20170281764A1 (JN BIOSCIENCES, published 2017).

Assay [1] addresses T1, HA-tagged human TIGIT with mutation N37A, on CHO-K1 cells (human, UniProt Q495A1 22-244).
T1 construct: Built as for m17
T1 sequence: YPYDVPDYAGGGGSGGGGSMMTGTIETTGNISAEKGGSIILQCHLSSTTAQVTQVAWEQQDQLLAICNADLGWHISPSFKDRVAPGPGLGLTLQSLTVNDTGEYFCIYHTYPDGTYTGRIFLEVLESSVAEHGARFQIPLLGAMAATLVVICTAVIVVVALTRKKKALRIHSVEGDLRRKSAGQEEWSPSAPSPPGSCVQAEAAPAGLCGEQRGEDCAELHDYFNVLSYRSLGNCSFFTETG
As to the kind of experiment: flow cytometry titration on CHO-K1 cells transiently expressing the HA-tagged TIGIT mutant, Alexa488 anti-human IgG detection, four-parameter fit of percent of control, nM is from the concentration axis and paragraph 252. On the procedure: (§1) For flow cytometry analysis of the anti-hTIGIT antibody binding epitope, HA-tagged human TIGIT proteins with or without single amino acid mutation were transiently transfected into CHO-K1 cells. After 24 hr, transfected cells were suspended in HBSS buffer (Thermo Fisher Scientific, Cat#14175095), and incubated with HuTIG1-IgG1.AA antibody at varying concentrations in 50 μL volume. After 1 hr incubation at 4° C., cells were washed and a second incubation with 50 μL Alexa488 conjugated anti-human IgG(H+L) secondary antibody (Thermo Fisher Scientific, Cat#A-11013) was performed to detect cells bound by antibody. Cells were incubated with an anti-HA antibody (Sigma, Cat# H7411) as a positive control, and non-transfected CHO-K1 cells were used as a negative control. The cells were analyzed on an Attune NxT Cytometer (Thermo Fisher Scientific) and the data were processed using FlowJo software. For each mutant, the saturating antibody binding MFI (mean fluorescence intensity) were normalized to 100% POC (percent of control), and no primary antibody binding control MFI were normalized to 0% POC. Data were then fit to a four parameter non-linear sigmoidal curve using GraphPad Prism 7 curve fitting using following formula: Y=Bottom+(Top−Bottom)/(1+10^{((Log EC}^₅₀^{-X)*HillSlope)}).
(§2) All of these residues co-locate to one discrete region on the front ([…] structure of the TIGIT IgV extracellular domain (FIG. 28).

In assay [2] the target is T2, Y92A.
T2 construct: also called HA-tagged human TIGIT with mutation Y92A, on CHO-K1 cells
T2 single chain: T1 sequence with A56N, Y111A
The description is as above. The procedure:
as §1, §2

The target in assay [3] is T3, L44A.
T3 construct: also called HA-tagged human TIGIT with mutation L44A, on CHO-K1 cells
T3 single chain: T1 sequence with A56N, L63A
The assay is described as above. On the procedure:
as §1, §2

Assay [4] concerns the target T4, human TIGIT on cells (Jurkat-TIGIT cells; human T cells, NK cells and other blood cells) (human, UniProt Q495A1 22-244).
T4 sequence: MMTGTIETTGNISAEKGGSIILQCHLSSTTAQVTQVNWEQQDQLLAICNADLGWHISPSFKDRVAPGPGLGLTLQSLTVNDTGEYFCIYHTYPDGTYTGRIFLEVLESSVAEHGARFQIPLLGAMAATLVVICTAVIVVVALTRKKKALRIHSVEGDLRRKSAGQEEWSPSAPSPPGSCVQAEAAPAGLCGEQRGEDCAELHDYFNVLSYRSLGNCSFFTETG
In words: cell-based or functional assay.

Assay [5] concerns the target T5, extracellular region of human TIGIT fused to the Fc region of human immunoglobulin gamma-1 chain (hTIGIT-Fc) (human).
T5 construct: also called human TIGIT-Fc fusion protein; wild-type TIGIT-Fc
As to the kind of experiment: ELISA, plate coated with 5 µg/ml hTIGIT-Fc. The procedure:
Binding of HuTIG1-IgG1.AA to human TIGIT was examined by ELISA. An ELISA plate was coated with 5 μg/ml hTIGIT-Fc in PBS (100 μl/well) at 4° C. overnight, washed with Wash Buffer (PBS containing 0.05% Tween 20), and blocked with 200 μl/well of SuperBlock Blocking Buffer (Thermo Fisher Scientific). After washing wells with Wash Buffer, HuTIG1-IgG1.AA, starting at 2.5 μg/ml and serial 2-fold dilutions in SuperBlock Blocking Buffer, was added for binding to plate-bound human TIGIT. After incubating the ELISA plate for 1 hr at room temperature and washing with Wash Buffer, bound antibodies were detected with 100 μl/well of HRP-conjugated goat anti-human kappa chain polyclonal antibody (Southern Biotech), 1/2,000-diluted in ELISA Buffer. After incubating for 30 min at room temperature and washing with Wash Buffer, color development was initiated with 100 μl/well of ABTS substrate and stopped with 100 μl/well of 2% oxalic acid. Absorbance was read at 405 nm. […] The half maximal effective concentration (EC₅₀) of HuTIG1-IgG1.AA for binding to TIGIT was 65 ng/ml.
Background: ELISA stands for enzyme-linked immunosorbent assay.

Numbering of substitutions follows the chain as printed. Numbers in names are those of the source.

B1: HuTIG1-IgG1.AA (humanized IgG1/kappa form of TIG1, L234A/L235A) (antibody)
heavy: not shown
light: DIQMTQSPSSLSASVGDRVTITCRASKSISKYLAWYQQKPGKAPKLLIYSGSTLQSGVPSRFSGSGSGTDFTLTISSLQPEDFATYYCQQHNEYPWTFGGGTKVEIKRTVAAPSVFIFPPSDEQLKSGTASVVCLLNNFYPREAKVQWKVDNALQSGNSQESVTEQDSKDSTYSLSSTLTLSKADYEKHKVYACEVTHQGLSSPVTKSFNRGEC
notes: Mature full chains; also called humanized TIG1
The term EC50 denotes the concentration at which the effect is half-maximal. Low values mean an effect from little substance, high ones a need for much substance. For the molecule B1, the concentration giving a half-maximal response (EC50) amounted to 126 nM in assay [1], 2.12 nM in assay [2], 1.23 nM in assay [3] and 0.065 µg/mL in assay [5]. In addition, in assay [4], the “increase of K562 target cell killing by purified NK cells, 10 µg/ml antibody, relative to 'No Antibody' or Rituxan” value was found to be 28%.
